Experiments:
MS2 coat protein [1] = test: apparent KD of MS2 coat protein, switch ON state; designed switch direction (-1 OFF switch, 1 ON switch): -1; higher = weaker reporter binding; details: FMN input: 0 or 200 uM; Eterna round: R93 (includes R88 designs)
Method in brief: (§1)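 Titration buffer: 100 mM Tris-HCl pH 7.5, 80 mM KCl, 4 mM MgCl2, without or with constant ligand. Designed RNA switches transcribed on-chip from Illumina sequencing clusters received SNAP-549-labelled MS2 coat protein in twofold steps from 0.7 or 1.5 nM to 3 µM. Apparent KD is the median per design of fits to normalised cluster binding curves.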

MS2 coat protein [2] = test: apparent KD of MS2 coat protein, switch OFF state (with FMN for OFF switches, without FMN for ON switches); designed switch direction (-1 OFF switch, 1 ON switch): -1; higher = weaker reporter binding; details: FMN input: 0 or 200 uM; Eterna round: R93 (includes R88 designs)
Method in brief: as §1

Sequence | apparent KD of MS2 coat protein (MS2 coat protein [1]) | apparent KD of MS2 coat protein (MS2 coat protein [2])
AAAACUGGAGGAUAUACGUACAUGUCAAAAGACGUGAAGGGACAUGAGGAUCACCCAUGUAGAAGGCUAGAAAA [JL Stem Breaker 8] | 74.2 nM | 28.6 nM
AAGAAGGUAGGAUAUACUAGGGCAACUAAUGCAAAGAUAGGACAUGAGGAUCACCCAUGUAGAAGGGCCAGAAA [JR_Exc002_Sub403] | 48 nM | 59.6 nM
AAAGCGGCAGGAUAUACAGGAACAAAAGUAUGUGCAUCCGCACAUGAGGAUCACCCAUGUAGAAGGGCUAAUAA [Ontiti] | 167 nM | 270 nM
GAAAAUGGAGGAUAUACGUACAUGUCAAAAGACGUGAAGGGACAUGAGGAUCACCCAUGUAGAAGGCUAAAAAG [Mat - Exclusion 2 - JL mod - D96] | 101 nM | 15.4 nM
AAAAAACAUGAGGAUCACCCAUGUAAGGAUAUGCAAAAGAAAAGAAAAGAAAGAAGAAGCAGAAGGUACAAGAA [Userkaf] | 35 nM | 31.2 nM
AAAAAGAGAGGAUAUACAUGAGGAUCACCCAUGUGACAUUAAAUAAAUAAAAUAAAAUGUAGAAGGCUCAAAAA [65%, Moding Exclusion3-cac2, 22] | 38.6 nM | 171 nM
AAUAACUCAGGAUAUACUAAAGAAAUGAAAAGAAAUAAAGAACAUGAGGAUCACCCAUGUAGAAGGGAGAAUAA [Wazad] | 94.2 nM | 55.1 nM
AUAAAGUCAGGAUAUGUAAAAAUAACGAAAGUUAUAAAUAAACAGAAGGGACAUGAGGAUCACCCAUGUGGAAU [Meechl MS2 EX4 62% 3] | 54.2 nM | 75 nM
AGAGGACAUGAGGAUCACCCAUGUGAGGAUAUGCACAACUAAGGACAAGAUCGCUAUAGCAGAAGGCACGUACU [JR_EXc001_Sub809] | 39.3 nM | 33.8 nM
AAAAAACAUGAGGAUCACCCAUGUGAGGAUAUCGGAAAAGGAAAAAAAAAAAAGAAGACGAGAAGGCACACCAA | 28.6 nM | 25.1 nM
AAGAAGCAAGGAUAUACAUGAGGAUCACCCAUGUAAAAGAAAGAGAAGGGAAAGAAAAGUAGAAGGUGCGAAAA [Ruby 71] | 20.2 nM | 23.7 nM
AAUAAGUCAGGAUAUACUAAAGAAAUGAAAAGAAAUAAAGAACAUGAGGAUCACCCAUGUAGAAGGGACAAUAA [Anati Djedkare] | 100 nM | 53.6 nM
AGCAAGUAAGGAUAUGCGAAGUCAGGACACACACUGACAAAGCAGAAGGUACAUGAGGAUCACCCAUGUAAGCA [Mat - Exaclusion 4 - Eli mod - D62] | 21.8 nM | 14.9 nM
GGUUGGCGAGGAUAUACAUGAGGAUCACCCAUGUGAGAGAAGAAAGUGAGGAGGAGAAGUAGAAGGCGCUGACG [salish99-ex3-20] | 51.4 nM | 98.9 nM
AAGGUAUAAGGAUAUACAUAGAUACAGACACAUGUUCAAGUACAUGAGGAUCACCCAUGUAGAAGGUAUAUAUA [AJ 13] | 29.2 nM | 26.7 nM
AAAAAACAUGAGGAUCACCCAUGUAAGGAUAUCAGAGAAUUAAAAAAAAAAAAAAAAAUGAGAAGGUACAAAAA [excaliber] | 31.7 nM | 19 nM
GUGUACAGAGGAUAUAUAUGAGCUAGGAAACUAGCAAGAUCACAUGAGGAUCACCCAUGUAGAAGGCUGUACAC [Ex2: 735] | 108 nM | 796 nM
AAAAGGGCAGGAUAUGCGUACUCACGGGAAAGCUGGAUGGUACAUGAGGAUCACCCAUGUAGAAGGGCUAAAAA [Dora Explored 18 - Jieux - Exclusion 2] | 32.8 nM | 21.4 nM
CUCAAGUGAGGAUAUCAGUAGUAAAAAAAUAAAAUUACUACUGAGAAGGCACAUGAGGAUCACCCAUGUGCCAA [EX4 335: Super Stable 35] | 14.7 nM | 15.2 nM
GAAAAGUCAGGAUAUGCAGAUAAAAAAACGAAAAAAAAUCUGCAGAAGGGACAUGAGGAUCACCCAUGUAAAAA [Mat - Exclusion 4 - Mayanna - D109] | 45.6 nM | 45.7 nM
AGGUUGUCAGGAUAUGCGUGAAGAAUAAAACAAAUAACAACGCAGAAGGGACAUGAGGAUCACCCAUGUAACCA [May 53] | 35.6 nM | 27.2 nM
AAAAAAAAAGGAUAUACAGGAGGUAAGGUCGGACAAAAAAAACAUGAGGAUCACCCAUGUAGAAGGUUUAAAAA [Excls2-IX] | 34.5 nM | 19.8 nM
AAAAAACAUGAGGAUCACCCAUGUAAGGAUAUGCAAAACCCAUAUAAAAAGGGAAAAAGCAGAAGGUGCAAAAA [wbt round 1 mod 5] | 23.7 nM | 33.2 nM

Sequence | apparent KD of MS2 coat protein (MS2 coat protein [1]) | apparent KD of MS2 coat protein (MS2 coat protein [2])
UUUUGACAUGAGGAUCACCCAUGUCAGGAUAUAGUAAGAAAAAAAAAAAAAAAAACUACUAGAAGGGAUAUGGA [Amethyst 51] | 24.5 nM | 25.4 nM
CUCUAGUUAGGAUAUGCAAGAAAAGAAGAGAAAGAAAAGAAGCAGAAGGAACAUGAGGAUCACCCAUGUAAGAA [EteRNA is fun!] | 22.7 nM | 20.4 nM
AACAGUACAGGAUAUACAUGAGGAUCACCCAUGUGAGAGGAAUAAAACAAAAAUAAAAGUAGAAGGGUACUGGA [Ruby 45] | 35 nM | 106 nM
AAAAGUGGAGGAUAUACAUGAGGAUCACCCAUGUGUAAAAAUAAAUACACAAAAGAAAGUAGAAGGCCACAAAA [Ex 3 May 10] | 25.8 nM | 122 nM
AAAAAGUGAGGAUAUACGCUGAGGAGUAGACACAACCAGGCGUAGAAGGCACAUGAGGAUCACCCAUGUCCAAA [EX4 Malc#11] | 26.1 nM | 39.8 nM
AAAAAGCAAGGAUAUACAUGAGGAUCACCCAUGUGAAAAAAAACAAUAAGAAGAAAAAGUAGAAGGUGCAAAAA [Ex 3 Tesla 1] | 24 nM | 18.8 nM
GAAACUAGAGGAUAUACGUACAUGUCAAAAGACGUGAAGGGACAUGAGGAUCACCCAUGUAGAAGGCUAGAAAG [Mat - Exclusion 2 - JL mod - D98] | 47.8 nM | 54.2 nM
GAAAAGCGAGGAUAUACAGAAAAAAAAACAAAAAAAGAAAAACAUGAGGAUCACCCAUGUAGAAGGCGCAAAAA [V1] | 25.9 nM | 49.4 nM
AAGAUCAGAGGAUAUACAUAAGGUGAUGAAAACAUCGCCAAACAUGAGGAUCACCCAUGUAGAAGGCUGAUCAA [JL EX2 1] | 118 nM | 231 nM
AGAAAACAUGAGGAUCACCCAUGUGAGGAUAUGCAAAUAUAUACGAAAGAUUAUAAAAGCAGAAGGCACAAAAG [Meechl MS2 Ex1] | 35.8 nM | 57.7 nM
AAAAAGGCAGGAUAUACAUGAGGAUCACCCAUGUAAAGAAAGAAAGAGGUGAAAGAAAGUAGAAGGGCCAAAAA [Ex3 sub 2] | 92.9 nM | 72 nM
CUCUUGUGAGGAUAUUCAAGAAAAGAAGAGAAAGAAAAGAAGAAGAAGGCACAUGAGGAUCACCCAUGUAAGAA [EteRNA is fun!] | 25 nM | 30.8 nM
AGGCAGACAGGAUAUACUUGGGCAGCCAGUAUGGUAAUAUAACAUGAGGAUCACCCAUGUAGAAGGGUCAGAAA [JR_Exc002_Sub210] | 94.3 nM | 88.4 nM
AAAAUGUGAGGAUAUGUACGAAAAAAUAAAAAAAUAAAAGUACAGAAGGCACAUGAGGAUCACCCAUGUGGGAA [EX4 399: Minimal 12] | 158 nM | 94 nM
AAAAGCUCAGGAUAUACGGUCUGUUGUUGAGAAAUAUCGAAACAUGAGGAUCACCCAUGUAGAAGGGAGCGAAA [Exclusion2-cac2] | 108 nM | 269 nM
AAUAAAGCAGGAUAUACUAAAGAAAUGAAAAGAAAUAAAGAACAUGAGGAUCACCCAUGUAGAAGGGCUAAUAA [Semqen] | 42.8 nM | 18.4 nM
AGGGUACAUGAGGAUCACCCAUGUUAGGAUAUACAAAAGAAAAGAAAAGAAAGAAGAAGUAGAAGGGACAAGAA [Teti] | 45.5 nM | 59.1 nM
GAAAAGUGAGGAUAUGUCAAAAGUCACAAAAGUGACAAAAGACAGAAGGCACAUGAGGAUCACCCAUGUGGAAA [Mat - Exaclusion 4 - Eli mod - D51] | 30.9 nM | 38.4 nM
UCCUGACAUGAGGAUCACCCAUGUCAGGAUAUGCAUCUUAGGAAAAAAAAACUAAGAUGCAGAAGGGACAUGGG [Design 1: Super Stable] | 26.9 nM | 36.3 nM
AAAUAGUUAGGAUAUACAUGAGGAUCACCCAUGUGGACUUAUGGAGAAUAAUUUAAUGGUAGAAGGGACUAAAA [EX2 Malc#26] | 54.3 nM | 45.5 nM
AUAUAACAUGAGGAUCACCCAUGUCAGGAUAUCGAACCCAACACAACCAAAAUGUCGGCGAGAAGGGACAAAAA [Default title] | 27.5 nM | 22.6 nM
GGAAAGUAAGGAUAUGCGAACAAACAAACAAACAAAAGGGAACAUGAGGAUCACCCAUGUAGAAGGUGCAAACA [Exclusion 2 Three redone] | 46 nM | 32.6 nM
AGGGAGUGAGGAUAUACGAAAUAAAAAGAAGGAAAAAAAGAGUAGAAGGCACAUGAGGAUCACCCAUGUGAGAA [milkweed 12] | 20.7 nM | 20.6 nM

— the supplement of paper PMC9170038
